Source: publication PMC11931385, “Structural and functional analysis of cancer-associated missense variants in the retinoblastoma protein pocket domain” (The Journal of Biological Chemistry, 2025)
Positions count from the first letter of the chain named. Numbers in names are those of the source. No end group written: not given here. TMR = tetramethyl rhodamine dye

T1: Rb^P R451H (human, UniProt P06400 380-788, R451H)
T1 construct: also called variant 6
T1 sequence (looked up): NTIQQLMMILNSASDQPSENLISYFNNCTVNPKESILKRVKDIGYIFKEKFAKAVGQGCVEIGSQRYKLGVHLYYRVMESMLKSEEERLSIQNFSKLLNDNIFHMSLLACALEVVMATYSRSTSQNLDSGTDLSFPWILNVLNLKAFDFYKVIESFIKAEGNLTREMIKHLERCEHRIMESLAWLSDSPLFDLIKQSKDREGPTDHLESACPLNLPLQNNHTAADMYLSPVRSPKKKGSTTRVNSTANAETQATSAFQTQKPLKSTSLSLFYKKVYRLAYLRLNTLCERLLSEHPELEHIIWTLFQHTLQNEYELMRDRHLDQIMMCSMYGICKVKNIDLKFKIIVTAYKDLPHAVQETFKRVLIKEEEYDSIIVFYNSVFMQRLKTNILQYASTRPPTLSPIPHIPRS

T2: Rb^P S534R (human, UniProt P06400 380-788, S534R)
T2 construct: also called variant 23
T2 sequence (looked up): T1 sequence (looked up) with H72R, S155R

T3: Rb^P I703F (human, UniProt P06400 380-788, I703F)
T3 construct: also called variant 64
T3 sequence (looked up): T1 sequence (looked up) with H72R, I324F

T4: Rb^P R668C (human, UniProt P06400 380-788, R668C)
T4 construct: also called variant 51
T4 sequence (looked up): T1 sequence (looked up) with H72R, R289C

T5: Rb^P R668H (human, UniProt P06400 380-788, R668H)
T5 construct: also called variant 52
T5 sequence (looked up): T1 sequence (looked up) with H72R, R289H

B1: TMR-E2F1^TD, peptide of the E2F1 transactivation domain (peptide)
peptide: {TMR}-GEGIRDLFDCDFGDLTPLD
notes: also called E2F^TD; source: synthetic peptide, bought: GenScript
B2: TMR-E7^LxCxE, LxCxE peptide of the E7 oncoprotein from HPV (peptide)
peptide: DLYCYEQLN
modifications: also: TMR label, position not given here
notes: source: synthetic peptide, bought: GenScript

How the values were obtained:
Assay in all cases: fluorescence polarisation; 25 °C; unlabeled Rb^P titrated against 1.5 nM TMR-E2F1^TD or 7.5 nM TMR-E7^LxCxE; 25 mM Tris pH 8.0, 200 mM NaCl, 1 mM DTT, 0.1% Tween-20; 2 min incubation; quadratic fit; apparent Kd for the variants, Kd for WT
Settings in all cases: both partners purified
Rb^P R451H = target: T1, Rb^P R451H
Rb^P S534R = target: T2, Rb^P S534R
Rb^P I703F = target: T3, Rb^P I703F
Rb^P R668C = target: T4, Rb^P R668C
Rb^P R668H = target: T5, Rb^P R668H

Binder	Kd (Rb^P R451H) [nM]	Kd (Rb^P S534R) [nM]	Kd (Rb^P I703F) [nM]	Kd (Rb^P R668C) [nM]	Kd (Rb^P R668H) [nM]
B1	29	9280	63	12	13
B2	9	4	16	3	7
